# Results as given in the DeepSol protein solubility set.
# Test: soluble on expression in E. coli; label from the status in PepcDB or PDB records
row,Sequence,soluble on expression in E. coli
1,MGSDKIHHHHHHMIGFDYGTSNCGVATMRNGQPHIIPLLGNESYIASNLYAPSRDVIANWLSQQLDSPQQANFIAERKAQLQKGQAALRELKFDGISSELLFGKSALAQYLEDPEEGYYIKSPKSFLGASGLATAQIQFFEDIVACMMSNVKNLTEQALQKEVTQTVIGRPINFQGLHGEESNRQAISVLTNAAKRVGFKDVEFQYEPVAAGFEFESSLTKETRVLVVDIGGGTSDCSMLLMSPDFTDNDNRNDHLLAHTGVRVAGNDFDIQLALQGIMPSFGMNSLLKTGKPMPTSSFYQALAINNINEQTEFYSAKNRRNLVQLSRDAKETAIIERLVAVHDHKLSYQLVNAAEQAKIALTEQSKQTIDLSDVTDGLCAEVTKETLRSANKRTLESIANIMQSAVQQAQCQPDVIFVTGGTAKSPVLSEFLQQQMPNVPIVVGDHFGSVTSGLARWAEKIYQ,not soluble
2,SLRECELYVQKHNIQALLKDSIVQLCTARPERPMAFLREYFEKLEKEEAK,soluble
3,MGSDKIHHHHHHMAQPGKILKEQKYDRQLRLWGDHGQEALESAHVCLINATATGTEILKNLVLPGIGSFTIIDGNLVSGEDAGNNFFLQKSSIGKNRAQAAMEFLQELNSDVSGSFVEESPENLLDNDPSFFCRFTIVVATQLLESTLLRLADVLWNSQIPLLICRTYGLVGYMRIIIKEHPVIESHPDNALEDLRLDKPFPELREHLQSYDLDHMEKKDHSHTPWIVIIAKYLAQWYNETNGRIPKSYKEKEDFRDLIRQGILKNENGAPEDEENFEEAIKNVNTALNTTQIPSSIEDIFNDDRCINITKQTPTFWILARALKEFVAKEGQGNLPVRGTIPDMIADSNKYIKLQNVYREKAKKDAAAVGNHVAKLLQSVGQAPESISEKELKLLCSNSAFLRVVRCRSLAEEYGLDTVNKDEIISSMDNPDNEIVLYLMLRAVDRFHKQHGRYPGVSNYQVEEDIGKLKSCLTGFLQEYGLSVMVKDDYVHEFCRYGAAEPHTIAAFLGGAAAQEVIKIITKQFVIFNNTYIYSGMSQTSATFQL,not soluble
4,MSLKNGLRIYALGGISEIGRNMTVFEYNNRLLIVDCGVLFPSSGEPGVDLILPDFGPIENKLDKVDALVITHGHEDHIGAIPWLLKLRPDMPILASKFTMALIAAKCREHRQRPKLIEVNEKSDINRGPFNIRFWAVNHSIPDCLGVAIKTGAGLVIHTGDVKLDQTPPDGRPTDLPALSRFGDEGVDLLLCESTNATVPGFSGSEADVAPTLKRLISDAKQRVILASFASNVYRVQAAVDAAVAAGRKVAFNGRSMIRNMEIAEKMGYLKAPRGTIVSMDDAAKMAPHKVVLITTGTQGEPMAALSRMARREHRQITVRDGDLIILSSSLVPGNEEAVFGVMNMLSQIGATVVTGRDAKVHTSGHGFAGELLFLYNAARPKNVMPVHGEWRHLRANKELAISTGVEADRVVLAQNGVVVDLVDGRARVVGQMQVGHLYVDGVTMGDIDAEVLEERTSLGEGGLIAITAVIDSRTARLLERPTVQAKGFSEDAVAMMPEVTELVEKTMNDLAAEGENDPYRMVQQLRRRVSRFVEQKWRRKPMIMPTVIPTTSATIDIDDADVRASREGHHHHHH,soluble
5,MGSDKIHHHHHHMPVLPVSSYKGSGPLANGHVQTMFPVLFRPMPVVEYHRQRLETPDGDFLDVDFSSAAAAAQSESIAVISHGLEGHSRRRYVQGMARVLNARGWDAAAWNFRGCSGQPNRLPRMYHSGDTQDLHTVVTACAQKGYRRILLVGVSMGGNQILKYLGEDPDRVDSRVCGAVVFSVPCDLVGAAQVLGRPQNSVYMRYFLRTLRQKIKAKHAMYPDTIQMDGLDSIRTFAEFDDRYTAPLHGFSGALDYWTKSSCRQFLSSVRVPALLVNALNDPFLSASCYPYREARQSGSLFFETTVTGGHVGFVQFNRQNIYWSEERLLSFMDEQGL,not soluble
6,MVCQHNDELEALVKKAKKVTDKGEVASYIPALAKADKHDLSVAIYYSNNVCLSAGDVEKTFTLQSISKVLSLALVLMEYGKDKVFSYVGQEPTGDPFNSIIKLETVNPSKPLNPMINAGALVVTSLIRGRTVKERLDYLLSFIRRLTNNQEITYCREVAESEYSTSMINRAMCYYMKQYGIFEDDVEAVMDLYTKQCAIEMNSLDLAKIGSVFALNGRHPETGEQVISKDVARICKTFMVTCGMYNASGEFAIKVGIPAKSGVSGGIMGISPYDFGIGIFGPALDEKGNSIAGVKLLEIMSEMYRLSIFLEHHHHHH,soluble
7,FVNKDQIAKDVKQFYDQALQQAVVDDDANNAKAVVKTFHETLDCCGSSTLTALTTSVLKNNLCPSGSNIISNLFKEDCHQKIDDLFSGKH,soluble
8,RNLSGQSRTVGVEYVSANPTGPLHVGHGRAAAIGDCLARLLEANGWNVKREFYYNDAGVQIENLVRSVQARARGLKPGDALWPTDAYNGEYIADIAKAYLAGDSINMVDTIITSTKNVDDTAAIHHFAVNYLRNEQNHDLAAFNVDFDIYFLESSLYKDGKVEETVQKLINSGHTYEEGGALWLKSTHFGDDKDRVMRKSDGSYTYFVPDIAYHLSKWQRGYERAITELGADHHGSLARVHAGLQALEIGIPPGWPEYVLHQMVTVMRGGEEVKLSKRSGGYVTLRDLIEETSTDATRWFLIARKPDSQLTFDIDLARQKSNDNPVFYVQYAYARVCSLMHQAHE,not soluble
9,MISANRPIINLDLDLLRTFVAVADLNTFAAAAAAVCRTQSAVSQQMQRLEQLVGKELFARHGRNKLLTEHGIQLLGYARKILRFNDEACSSLMFSNLQGVLTIGASDESADTILPFLLNRVSSVYPKLALDVRVKRNAYMAEMLESQEVDLMVTTHRPSAFKALNLRTSPTHWYCAAEYVLQKGEPIPLVLLDDPSPFRDMVLATLNKVDIPWRLAYVASTLPAVRAAVKAGLGVTARPVEMMSPDLRVLSGVDGLPPLPDTEYLLCYDPSSNNELAQVIYQAMESYHNPWQYSPMSAPEGDDSLLIERDIE,not soluble
10,MGSDKIHHHHHHVVDSLQQWQEVEAVLADLSQASQEHHYRQTHRLVQDYLDRLQLSPREQQGLEPLLKSLERMQAKLEQQVLHIAVFGLVGRGKSSLLNALVGETVFETGAIHGVTTAIATAAWPLTTDEDGVQRLRWSGLGDVQVELIDTPGIDEIDGDQREALAKRVAQQADLILFVVSGDISQLEQDTLTVLHQAHKPLLLVLNKADQYSDRDREAIRNKLADERLRHLISIDEIVTVAAAPRQAEPEYDGDRLVGTKLVSLPPQVEPLRQRIITLLLHEGQSLLALNALLQMAMVDRQVVRRKLQSRDRQAEELIWRFAIAKGMAVAINPISFVDLLGGAAIDVALILQLSQLYDLPIGEGKAIALLRTIAVGMGSLGLGEGLVRVGLSALKGLMGVAAPVSGGLSLGVYVPVALTQAGIGGFATYAIGQVTKAYLANGADWGPEGAGLLTQQILDSLDEAAILQRLRGEIDRRLRLKQL,not soluble
11,MAHHHHHHMECGYRNEGKFHQVVLNIKEKIEKHDLSKWKDIVKPEEGPKYDEYFERLLRGGTPEKDSHEEDSNEKHTHETHDLPAEQAEETPPEVCEPPGDEKNKTEFQLNKEFFDKISNKEKFYFLLNIKEMMETSWLLAQKRLEGIKLEEKSKPVNVQDLLNYSQKIADTTCAPPECDNINDKIMHQEYYPNYHFLNFVNVEEIHLSKLFQLQKYSTVCFPPIITIQEGKDNMLAIDITCSTPHATIYYRMNDDPNEQIYNTDDKPQIRKRKKVNVYAWSVKDGHIKSRVSCISKSYKVEEDDSFPLSDNLPNKEQGEQQTGSSKMGVEANAPGKPSQITNVFKNLGFLLSRKKEKTEEPSSNGESSSEG,not soluble
12,MQLLITGGTGLIGRHLIQRLQLLSHHITVLTRDPERARGVLGNQVEYWSTLSNITSLNDFDGVINLAGEPIADKRWTPQQKQRLAQSRWSITEQLATLIKASSEPPTVFISGSAVGYYGDQGEALVTEGESPVDEFTHHLCTRWEALAQSAESDKTRVCLLRTGIVLSAQGGALAKMLPIFRLGLGGPMGSGKQYMPWIHIDDMVNGIIYLLDQPILRGPFNMVAPYPVHNEQFSAMLAHVLDRPGFLRAPAFAMKLLMGEASTLVLGGQRAIPQRLEAAGFGFRFFELEEALQDVTKKPGLEHHHHHH,soluble
13,MMINTQEDKLVSAHDAEEFHRFFVGHDSDLQQEVTTLLTREAHLLDIQAYKAWLEHFVAPEIKYQVISRELRSTSERRYQLNDAVNLYNENYQQLKVRVEHQMDPQNWANNPKIRFTRFVTNVTAAKDKSAPEILHVRSNLILHRARRENQVDVFYATREDKWKRIEGGGIKLVERFVDYPERIPQTHNLLVFL,soluble
14,MAHHHHHHMSSVINYEKFEKIDISSSDDDNKKKLNPHLTKLDNKDKVVIGPNGLTILKNNNDEKIKHDKYNNTSKNVEEIKDKNDEYKTIYNETNNEILNNKNDNIHVQNMNNYVADDKKYKDMFINGAVVPYEYIWNQSIHYINAFICLPLNCKAKNLIVDIKEDKLIVKIKNYKCGIIYNNNNNNNKTNQHNTQSNSFHDNVEILVDKKFPFKINTDEDTQIWEIKNMQINWYTLFNLSNEINNQNVHYLFEDYNMLDKQETFLYISVKKINEIENAYIWWSTLFKNEHPIKIENLPSRSSTNKAKKTMNSFKTAWDEAHEIFKKNISMKQLPFRIDSS,soluble
15,GPGSMRAEETAPSIPPPPTISPQKTSHRTAVVPSDPSNRPTQSLRSTKELMRQRRSTVVPRITDIFALGQLHEKGERVGSRNVCPPTWKQRMSLAGQFTTFCRTHEQPINEKSCAVILMAILDVAPSTRPQHARMLRSVLRMDRTPLDMMILGLKETAARSETKQQRQQSRAIYRRCACASSGRNSMAPPMRTTVNENETARTLRRSCFSATK,soluble
16,MMEHDRARTRAWVLHPELKSDLDRRDPVPALEEAVALAAALPDLDVVGSGIVRLPKPHPGHLFGSGKVEELATLFHDNEVELVLIDGPLSPVQQRNLEKAWKVKILDRTGLILEIFSDRARTREGVLQVEMAALSYQRTRLVRAWTHLERQRGGLGFVGGPGETQIEADRRAIDEQLVRLKRQLDKVVKTRELHRKARAKVPYPIVALVGYTNAGKSTLFNRLTGAEVMAKDMLFATLDPTMRRVVLPDGPEVILSDTVGFISDLPTELVAAFRATLEEVLAADLIVHVRDIHHAATEEQARDVETILASLGVDEGRPKFEVWNKVDLLDPDKRAALRERTARDPSLFAVSAVTGEGLESLLTAIAEALAETRSEAVLTLGFADGKRRAWLFAQDVVQAEEQSDDGFRLTVLWTPRQAARYAALLEHHHHHH,soluble
17,MKLYLIGLGPGDPELLTLKALRLIQRLPVLFYPKEEGREPVALGIARPFLPEGKPLLPLPLFTGGDPKEAERARREAARRVREALSRYGEGGYLVLGDSLLYASPLNLLPHLEGVAVEAVPGISAHQLAAASLLKPIALGEEGFAAVTGLGPVDPEGLDRFQSVFVYKAKDLEALERAFPDREGWAFLRLGMPGERVLPLGAAKGVARDYWTLVGLWRKGGEG,soluble
18,MGSDKIHHHHHHMSKLNLVHLNGLRAVEAVGRLGSLQAAASELGVSIGAISQQVIKAEQQLQLQLFERTSRGMVPTDVAEPVLDRLSAGFRHLSGAVALALKSDDTVLTISVAPVFAARWLVHRIGAFSERFPTIRLRMEASDRLIDPSSSDVDLCIRVGRGDWPGVRAELLLEQKVFPVCTPAMAKRLQSPADLLELPIVEDGRAMFSWDVWLAAAGLPGRSVCTRHVFSEASLCLDAALAGQGVLLAWQTIASQQLQQGQLVAPFGPAVPTGLAHYFVSPEGARRNDKVDAFKRWLRDELHEDMTRLAKAIPFLGGPFLKGECG,not soluble
